Measurements from the supplement of paper PMC9170038.

Test system: MS2 coat protein
Test: apparent KD of MS2 coat protein; higher = weaker reporter binding
Details: Eterna round: R107
Method: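 RNA-MaP round R107: designed RNA switches with theophylline, tryptophan, arginine or FMN aptamers are transcribed on-chip within common flanks. They are titrated with SNAP-549-labelled MS2 coat protein in RNA-MaP buffer (100 mM Tris pH 7.5, 80 mM KCl, 4 mM MgCl2), without ligand or with the indicated ligand. Median apparent KD per design.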

[1] = input ligand: theophylline 20 uM
[2] = input ligand: theophylline 2 mM
[3] = input ligand: tryptophan 2.4 mM

Sequence | apparent KD of MS2 coat protein (input ligand: arginine 13.2 mM) [nM] | apparent KD of MS2 coat protein (input ligand: none) [nM] | apparent KD of MS2 coat protein [1] [nM] | apparent KD of MS2 coat protein [2] [nM] | apparent KD of MS2 coat protein [3] [nM]
ACGCUGAUUGAUUACAAUCAGCGAAAAGAUACCAGCCUGGAUAUCGGCCCUUGGCAGCUUAAACCUGAGGAUCACCCUGGUAAAA [TheoAS 13 #MS2Right #BothOrNeither #AlternativeMS2] | 100 | 93.6 | 126 | 72.9 | 147
CACGAAAGAUCGGCCGCCACUAAUCUAUGUGUUCUUUCACAUGAGGAUCACCCAUGUUCUUGCGUUAGGACCGGGAUUGAGCGUG [#02 Exclusion Tryptophan B] | 29.9 |  | 39.7 | 36.6 | 
AGCCCUGUGCUAGAUACCAGCUACAUGAGGAUCACCCAUGUGCGUCAGAAAUGACUGUGUAGCCCUUGGCAGCUACUCGCAUGUA [Exclusion - Theophylline B (Freestyle 6)] | 13 |  | 20.2 |  | 13.5
ACCAUGUAAUCAGAUACCAGACAUCUUUUAAAUCAUAUUACAUGAGGAUCACCCAUGUUGGUCCCUUGGCAGCUGAAAUAUUUUU [JR_Nu_SSTheophyB_Sub026] | 110 |  | 212 |  | 303
UGUAUGUGAUCUGAUACCAGCUUAAUAGCUUGAGGAUCACCCAAGUGGAGCGGAAACGCUAGCCCUUGGCAGCAGAUCGCAUACU [Denovo 10 #StaticStem #AlternativeMS2] | 104 | 198 | 104 | 11.9 | 198
UUACAUGAGGAUCACCCAUGUCAUAACGAUACCAGAUAGUUAAUGAUCCCUUGGCAGCGUAAUACCUAGACAUUUAAGUCAUAGG [#25 SameState-TheophyllineA] | 35.3 |  | 63.2 |  | 50.9
GGGUACAUCGCGGCCGCCACUUAUGUAAAUACAUGAGGAUCACCCAUGUCGAUGGAGACAUCGGUAAGGACCGGGUGAUGUACCG | 168 | 155 | 174 | 183 | 
UAGGCACGAGACAUGAGGAUCACCCAUGUUCGAGGACCGGUACGGCCGCCACUCGGUGGACUCAUGGUAAAGCCGGUGAGCCAAU [AK 1.2 SS Trypt (A)] | 16.7 | 17.1 | 28.1 | 15.8 | 51.6
AGAGUUAGACAAAAGUCUAGCUCACCAGAAGGAGCGUCCGAAAGGACAGGUAGGUCGCUGGUACACGAGGAUCACCCGUGUUCCU [ArgAS 16 #OpenEnded #AlternativeMS2] | 27.6 | 38.6 | 40.4 | 50.3 | 36.8
CUAUAAGUAGCGGCCGCCACUUACUCAUGAGGUAACAACAUGAGGAUCACCCAUGUUUGAGGAUCAAGGACCGGGCUAUUUAUAG [AstrosSSTryB#9] | 24.7 | 28.7 | 32.6 | 31.5 | 17.6
UGAGUUAGACAAAAGUCUAGCUCUGGUGAAGGAGCGUCCGAAAGGACAGGUAGGUCGCACCACAUGAGGAUCACCCAUGUUCCUU [ArgAS 10 #OpenEnded] | 112 | 227 | 192 | 323 | 216
CUGCCAUGCAGAGAUACCAGUGAGCUCAUAACAUGAGGAUCACCCAUGUACGCCGCAGAUCACCCUUGGCAGCUCUGCAUGGCAG [!#*@)] | 8.21 | 9.18 | 11.5 | 10.1 | 9.83
GCAUGUUGGUGGUAUCUGCGAAGGCGGAAUCGAGGACCGGUACGGCCGCCACUCGGCGACAUGAGGAUCACCCAUGUGGUUAGGA [Exclusion - Tryptophan A (Freestyle 8)] | 18.6 | 238 | 170 | 658 | 203
UUUUUCGCGGGUGAUACCAGCAAAGCUGUACUGGUCUGGUACAUGAGGAUCACCCAUGUUUGCCCUUGGCAGCGCUCGGGAGAAG [#21 Exclusion-TheophyllineB] | 27.7 |  | 47.9 |  | 28.6
AUGCAGAACACGGCCGCCACUCCAUGUAUACAUGAGGAUCACCCAUGUAAUUUGUAUUUUUUAUAGAGGACCGGGUGAAAUGCAA [JR_SSTryptoB_Sub012] | 26.7 |  | 38.7 | 42.9 | 
UUUUUUAUUAUGGCGUAUCGGAAAACCGAUACCAGUACAGAAAUGUACCCUUGGCAGCGGCGUUUUACAUGAGGAUCACCCAUGU [Ex Theophylline A 5] | 12.4 |  | 18.9 |  | 15.4
UAUACAUGAGGAUCACCCAUGUACCAUGAAGGAGCGCAGAAAUCUGCAGGUAGGUCGCAUGGGUUAUGACCUCGGCAUAAUAACG [Enreusus] | 40.5 | 27.8 | 46.9 | 39.7 | 26.2
AAUUUAUGGUUCUUGAUGUAGUAUCUAUUUCGAGGACCGGUACGGCCGCCACUCGUAAAUUACAUGAGGAUCACCCAUGUUAGCU [JR_ExcTryptoA_Sub011] | 18.8 |  | 27 | 28.8 | 
AUAAUAGGGAUAAUUAGUUUUAGGUCCAGUCGAGGACCGGUACGGCCGCCACUCGUACAGAAAUACAUGAGGAUCACCCAUGUUA [JR_SSTryptoA_Sub005] | 14 | 13.6 | 21.5 | 15.1 | 16.1
ACGGAGAUGUCGGCCGCCACUGAACUCAUGUUCAACAUGAGGAUCACCCAUGUACCUUAGUUUAUCAGGACCGGGACAUAUACGA [JR_ExcTryptoB_Sub003] | 79.7 |  | 170 | 183 | 
UGCGAUGAACCUGAUACCAGAUGUAUUUGCUCCUCGGACAACAUGAGGAUCACCCAUGUCAUCCCUUGGCAGCAGGAGCGAAAGC [theeternabot_exclusion_MS2_Theo_B_21] | 12.8 |  | 14.3 |  | 11.4
GAUGAACUAUUCGAUACCAGACUACAUGAGGAUCACCCAUGUGUGUCAAUUUCUCAGUCAGUCCCUUGGCAGCGAAUAGUUUAUC [#26 Exclusion-TheophyllineB] | 53 |  | 51.7 |  | 26.3
GGGUGCGGGUGAAGGAGCGUGAAGACAUGAGGAUCACCCAUGUAGAGGCCCGAACAGGGUUCGCAGGUAGGUCGCACCCGUGCCC [#1 Same State - Arginine B Attempt #3 (HarryS)] | 12 | 17.3 | 22.8 | 19.5 | 16.4
ACACGAAGCUGAAGGAGCGUGAUAUAAAUUUUUACAUGAGGAUCACCCAUGUUUCAUCGAUCACAGGUAGGUCGCAGAUGCGUGA [JR_SSArginiB_Sub013] | 15.2 | 14.4 | 16.9 | 16.9 | 14.8
GUUACAUGGCAAGCAUGUAUAUGGAUAGAUACCAGUUGAUAUUAAGACCCUUGGCAGCUGAGUACAUGAGGAUCACCCAUGUAAG [Theo A Ex t3] | 28.4 |  | 46.9 |  | 51.9
UUCAGCUAGUCGGCCGCCACUGCAUGAGGAUCACCCAUGUAGGUCCACACUGCUUCGGCAGUGAGUAGGACCGGGACUAGCUGAG | 11.4 | 9.41 | 12.9 | 10.8 | 13.7
UGAUGGUGCUGAAGGAGCGUGUAAGAACAAGAACAUGAGGAUCACCCAUGUAUUAAUUUAACACAGGUAGGUCGCGGUGUUAUUG [11.L] | 30.5 | 25.4 | 42.5 | 45.8 | 19.7
ACAUGAGGAUCACCCAUGUAAAUAACGGAAGGAGCGUGCAAAAGCACAGGUAGGUCGCCGAUAUAAAUAUUGGGUAUUAUAUUAU [AstrosExyArgA#2] | 23.9 | 33.6 | 39.3 | 29 | 28.5
GGUUACUCUACGGCCGCCACUGUCAUGUAAAGAUACCUGUACAUGACAUGAGGAUCACCCAUGUGCAGGACCGGGUAGUGUAACC [Tryptophan B 18] | 91.3 |  | 177 | 201 | 
